What is called Kd is the free concentration of one partner at which half of the binding sites on the other are occupied at equilibrium, for simple one-to-one binding.

Here are results for three molecules from US20230348605A1.

The labels stand for the following.
B1: NJT4 (VHH)
VHH: QVQLVESGGGLVQPGGSLRLSCAASGFTFSSYTMRWYRQAPGKERELVAFIGVAGGSTKYADSVKGRFTISRDNTKNTVYLQMNTLKPEDTAVYYCYAPLTPYWGQGTQVTVSS
modifications: labelled with Texas Red via sortase-mediated tagging in the ex vivo imaging assay
B2: NJT3 (VHH)
VHH: QVQLVETGGGLAQAGGSLRLSCAASGRTLSGYAMGWFRQAPGKEREFVAAISWSGRNTYYDYTVQGRFTISKDNAKNTVNLQMNSLKPEDTAVYYCAVSRSLDEFGDGYEMDYWGDGTQVTVSS
modifications: labelled with Texas Red via sortase-mediated tagging in the ex vivo imaging assay
B3: NJT6 (VHH)
VHH: QVQLVETGGDLVQPGGSLRLSCAASGLTLDYYAIGWVRQAPGKEREGVSCITPQDGNTYYDDSVMGRFTILRDNAKNMVYLQMNNLKPEDTAVYFCAAAGALTLDPSEYEYWGQGTQVTVSS
modifications: labelled with Texas Red or 64Cu via sortase-mediated tagging in the imaging assays

This assay deals with purified human TNC protein (human) (UniProt P24821). Kind of assay: BLI.
B1: the Kd was less than 1 pM.

B2 had a Kd of less than 1 pM. The figure for B3 is less than 1 pM.
